Data published in patent publication US20260242834A1, “ENZYMES, POLYNUCLEOTIDES ENCODING SAME, AND METHODS OF USING SAME FOR PRODUCING MESCALINE” (YEDA RESEARCH AND DEVELOPMENT CO. LTD., priority 2023, published 2026).

Tests used:
[1] = target: 5-HT2A serotonin receptor (Homo sapiens, UniProt P28223); conditions: 5-HT2A serotonin receptor agonist, cited from earlier work
N. benthamiana leaves = test: Transient expression in N. benthamiana leaves by agroinfiltration; format: cell-based, Nicotiana benthamiana; conditions: tyramine 4 to dopamine 3 and 3-MeO-tyramine 7 to 3,4-diOH-5-MeO-phenethylamine 6
From the text: TyDC2, CYP1-12, PPO1, MT1-4, OMT1,5,10,11 and the previously characterized BvCYP76AD6 were amplified and cloned in pAlpha2-NPT II-Ubq10-CCD-Ter10 vector digested with BsaI using ClonExpress II One Step Cloning kit (Vazyme). For BvCYP76AD6 the inventors used stocks of previously transformed bacteria containing the specific gene (Polturak et al., 2016; New Phyol.). All plasmids were sequenced and transformed into Agrobacterium tumefaciens strain GV3101 by electroporation. A. tumefaciens harboring the overexpression constructs were grown overnight at 28° C. in Luria-Bertani (LB) medium in the presence of kanamycin and gentamycin. Bacterial cells were collected by centrifugation, washed, and resuspended in infiltration buffer (10 mM MES, 2 mM MgCl2, 2 mM Na3PO4, 0.5% glucose and 100 mM acetosyringone) to OD600=0.8. Individual and/or equal volumes of A. tumefaciens suspension with different expression vectors were combined to obtain the desired gene combinations and incubated for 2 h at room temperature. The solutions were infiltrated into 4- or 5-week-old N. benthamiana leaves from the abaxial side using a 1-ml needleless syringe. […] Leaf samples were flash frozen and extracted as previously described with 300 μl ice-cold methanol with 0.1% formic acid and analyzed via LC-MS. […]

3-MeO-tyramine 7 = test: Heterologous expression in yeast supplemented with 3-MeO-tyramine 7; format: cell-based, S. cerevisiae; conditions: two days from galactose induction; compared with LwCYP84A220
[2] = OMT in vitro assays with lysates from transformed E. coli in the presence of SAM; format: biochemical, Lophophora williamsii (Peyote); conditions: substrates 3, 6 or 9

5-HT2A serotonin receptor, sequence (P28223 whole entry): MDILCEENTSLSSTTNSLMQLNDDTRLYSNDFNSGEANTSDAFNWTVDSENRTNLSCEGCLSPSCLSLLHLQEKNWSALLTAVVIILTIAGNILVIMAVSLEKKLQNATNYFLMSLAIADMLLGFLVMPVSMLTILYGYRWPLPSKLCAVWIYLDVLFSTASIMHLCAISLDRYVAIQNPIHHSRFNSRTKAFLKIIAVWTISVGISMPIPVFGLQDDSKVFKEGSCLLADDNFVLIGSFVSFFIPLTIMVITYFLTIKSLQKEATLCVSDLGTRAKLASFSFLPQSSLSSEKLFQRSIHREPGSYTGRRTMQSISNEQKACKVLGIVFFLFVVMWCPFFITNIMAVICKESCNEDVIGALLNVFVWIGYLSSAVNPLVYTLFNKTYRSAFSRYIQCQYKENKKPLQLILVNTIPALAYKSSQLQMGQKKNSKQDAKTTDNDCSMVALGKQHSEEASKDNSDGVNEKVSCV

## COc1cc(CCN)cc(OC)c1OC [Mescaline]
[1]; compared with LSD
  times less potent effects than LSD: 1,000-3,000 times
[1]; compared with psilocybin
  times less potent than psilocybin: 30 times

B1: LwCYP12: Peyote CYP76AD-subfamily cytochrome P450 hydroxylase (protein, listed as Lophophora williamsii)
chain: MGYYAIFAVVLPFLWTCFYLLKLNPTSKLTSTIRLPPGPRPLPIIGNLHQLGERPHRTLANLAKVYGPIISLKFGSITTIAVSSADVAKEMFQKHDLALASRKVPAAVRANGHDNFSVAWLPVTPKWRFLRKISAIQLFSTQRLDARQSLRQAKVVELLDYIKARSNAGEPVDIGEAAFTTSLNLLSNTFFSMDLASYSSAASGEFKELVWKIMEEIGKPNLADCFPLVGFISRMSVNRELMGYGNKLNEVFAEIIEKRLSAANSSEGRGNGDVLDTLLRIMEEDDSELSLDDIMHLLMDFFTAGTDTTSSTLEWAMTELLHNPEKMAKAQAELEQVLGKDTVSIQESDIAKLLYLQATVKETLRMHPPTVFLLPRKADSDIDLYGHLVPKNAQVFVNLWAISYDPSTWENPDLFSPERFLDQDIDMKGQDFGFIPFGAGRRICPGLTLAYRMLNLMLGTLIHVFNWKLGDGLSREDLDMTDKFGITIQKAKPLRAIPILK
N. benthamiana leaves
  hydroxylation activity in planta: regioselectively catalyzes the two meta hydroxylations
3-MeO-tyramine 7
  catalytic activity for the production of 3,4-diOH-5-MeO-phenethylamine 6: superior catalytic activity

B2: OMT5: Peyote O-methyltransferase (protein, listed as Lophophora williamsii)
chain: MGSASGSAERTQMGEDEACSFAMTITSGSVPPMVLKAVIELDVLEIIKRAGPGAHLSPAEIAAQLPTTNPGAAAMLDRMLRLLASYDVLSYSLHTLPDGRVERLYGLAPVCQFLTNNEDGVTLSALSLMNQDKVLMESWYHLKDAVLDGGIPFNKAYGMTAFEYHGTDPRFNKVFNNGMSNHSTITMKKLLENYKGFEGVSTLVDVGGGTGATLNMIISKHPTIKGINFDLPHVIEDAPTYPGVEHIGGDMFVSVPKGDAIFMKWICHDWSDEHCLKFLKNCYAALADHGKVIVCEYILPVAPETNHAARTVFHVDAIMLAHNPGGKERTEQEFESLAKGAGFEGFRVACSAYDTKVMEFLKNN
[2]
  O-methylation regioselectivity: O-methylated the two meta hydroxyl groups
